Activity (relative luciferase (printed as %)) data for one substance are collected here from patent US20050118148.

Holding throughout (experiment): cell_activity
The target in series [1] is c-Maf (Mus musculus) (UniProt P54843). The following applies: HeLa; +/-12.1.
Series [2] addresses MafA (mouse L-Maf) (Mus musculus) (UniProt Q8CF90). The following applies: HeLa; +/-2.8.
Series [3] deals with MafB (Mus musculus) (UniProt P54841). The following applies: HeLa; +/-10.4.
Chain of MafB (Mus musculus) (P54841 whole entry): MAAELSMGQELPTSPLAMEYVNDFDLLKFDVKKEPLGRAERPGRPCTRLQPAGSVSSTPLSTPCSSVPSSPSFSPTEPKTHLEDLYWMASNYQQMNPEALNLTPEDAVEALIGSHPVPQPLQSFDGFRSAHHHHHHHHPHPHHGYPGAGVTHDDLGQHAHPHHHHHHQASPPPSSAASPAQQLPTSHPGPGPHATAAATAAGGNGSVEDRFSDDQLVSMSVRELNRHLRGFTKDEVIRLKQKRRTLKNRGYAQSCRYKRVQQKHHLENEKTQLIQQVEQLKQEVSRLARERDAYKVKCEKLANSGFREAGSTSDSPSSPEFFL

Chain of MafA (mouse L-Maf) (Mus musculus) (Q8CF90 whole entry): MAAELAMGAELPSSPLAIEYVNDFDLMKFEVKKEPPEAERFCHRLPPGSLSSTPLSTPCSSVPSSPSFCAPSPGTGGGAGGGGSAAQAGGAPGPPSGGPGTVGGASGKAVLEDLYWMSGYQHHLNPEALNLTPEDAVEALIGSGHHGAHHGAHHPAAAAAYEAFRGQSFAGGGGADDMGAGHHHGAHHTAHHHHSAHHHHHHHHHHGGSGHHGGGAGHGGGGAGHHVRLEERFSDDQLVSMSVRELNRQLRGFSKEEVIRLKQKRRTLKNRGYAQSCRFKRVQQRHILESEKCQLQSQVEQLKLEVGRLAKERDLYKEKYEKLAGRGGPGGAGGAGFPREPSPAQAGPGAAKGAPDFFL
Chain of c-Maf (Mus musculus) (P54843 whole entry): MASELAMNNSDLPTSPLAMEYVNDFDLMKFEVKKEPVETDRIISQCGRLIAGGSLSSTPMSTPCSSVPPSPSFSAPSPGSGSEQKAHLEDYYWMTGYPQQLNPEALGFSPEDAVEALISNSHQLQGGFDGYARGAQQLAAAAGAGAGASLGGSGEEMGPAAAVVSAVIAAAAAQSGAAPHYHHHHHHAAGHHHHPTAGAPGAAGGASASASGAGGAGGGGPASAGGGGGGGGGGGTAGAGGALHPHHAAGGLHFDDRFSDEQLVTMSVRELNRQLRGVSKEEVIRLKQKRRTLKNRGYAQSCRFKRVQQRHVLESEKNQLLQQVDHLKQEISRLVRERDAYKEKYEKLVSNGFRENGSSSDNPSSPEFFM

On to “rat insulin II promoter -238/+2 (-238 WT LUC)”, for which the figures for the activity (relative luciferase (printed as %)) in series [1], in series [2] and in series [3] were 28, 13.2 and 23.9, respectively.
